Series [1] concerns the target Vaccinia capping enzyme (VCE) (Vaccinia virus) (UniProt P04298+P04318). As to conditions: pseudouridine in place of U; 5' triphosphate; 37 C, 100 nM enzyme; larger than U counterpart.
Series [2] relates to T1, H3C2 RNA capping enzyme (Faustovirus D5b) (Faustovirus D5b).
T1 sequence: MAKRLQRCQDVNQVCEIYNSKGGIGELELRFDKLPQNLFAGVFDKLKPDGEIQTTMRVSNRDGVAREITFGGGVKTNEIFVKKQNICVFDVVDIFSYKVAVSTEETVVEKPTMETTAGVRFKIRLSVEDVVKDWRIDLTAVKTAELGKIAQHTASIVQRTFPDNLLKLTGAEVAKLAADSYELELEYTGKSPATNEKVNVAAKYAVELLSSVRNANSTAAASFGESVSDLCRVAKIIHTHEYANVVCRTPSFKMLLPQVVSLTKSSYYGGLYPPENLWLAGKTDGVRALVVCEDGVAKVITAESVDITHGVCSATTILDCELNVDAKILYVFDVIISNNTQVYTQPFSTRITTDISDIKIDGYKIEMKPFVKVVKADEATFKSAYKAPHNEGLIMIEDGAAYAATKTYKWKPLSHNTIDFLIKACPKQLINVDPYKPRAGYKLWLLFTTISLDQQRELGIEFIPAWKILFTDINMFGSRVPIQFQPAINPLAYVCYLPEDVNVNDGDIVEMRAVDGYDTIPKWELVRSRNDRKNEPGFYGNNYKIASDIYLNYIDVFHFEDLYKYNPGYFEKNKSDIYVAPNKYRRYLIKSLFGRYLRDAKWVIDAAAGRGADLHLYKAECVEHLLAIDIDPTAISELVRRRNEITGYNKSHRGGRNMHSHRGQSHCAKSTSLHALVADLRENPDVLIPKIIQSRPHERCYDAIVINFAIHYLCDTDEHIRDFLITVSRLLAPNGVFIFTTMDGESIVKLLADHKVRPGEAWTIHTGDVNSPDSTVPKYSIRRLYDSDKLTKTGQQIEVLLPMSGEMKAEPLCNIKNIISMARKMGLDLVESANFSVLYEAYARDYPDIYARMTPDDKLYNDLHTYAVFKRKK
As to conditions: pseudouridine in place of U; 5' triphosphate; 37 C, 100 nM enzyme; larger than U counterpart.

With cluc/A120 transcript with pseudouridine, the activity in series [1] was determined as 68.4 % capped; in series [2], 100 % capped.

These data come from patent publication US20210054016.
